From the RNAGym collection of RNA variant scans (doi:10.7554/elife.90254)

B1: OR4K15 (parent)
chain: GUUAACGGUCAUAGGCCAUGGAAACUAGGAGCACCAUUUCGCUGCCAGUGAAGAAAUGAACAAAGAAAAUCUGGGCCAGGCAGGCAUCAAAAGAAAUAGUCUUGCGCUCAACCAGAAAGUCUGUAAUCAUUUUAAGGGUA

Variants of: B1
Experiment: self-cleavage, relative activity (ratio to wild type); higher = more cleavage; in vitro, sequencing; the parent is a self-cleaving ribozyme

Variant	self-cleavage
GUUAACGGUCAUAGGCCAUGGAAGCUAGGAGCACCAUUUCGCUGCCAGUGAAGAAAUGAACAAAGAAAAUCUGGGCCAGGCAGGCAUCGAAAGAAAUAGUCUUGCGCUCAACCAGAAAGUCUGUAAUCAUUUUAAGGGUA [A24G A89G]	0.78
GUUAACGGUCAUAGGCCAUGGAAGCUAGGAGCACCAUUUCGCUGCCAGUGAAGAAAUGAACAAAGAAAAUCUGGGCCAGGCAGGCAUCUAAAGAAAUAGUCUUGCGCUCAACCAGAAAGUCUGUAAUCAUUUUAAGGGUA [A24G A89U]	1.41
GUUAACGGUCAUAGGCCAUGGAACCUAGGAGCACCAUUUCGCUGCCAGUGAAGAAAUGAACAAAGAAAAUCUGGGCCAGGCAGGCAUCAAAAGAAAUAGUCUUGCGCCCAACCAGAAAGUCUGUAAUCAUUUUAAGGGUA [A24C U108C]	0.01
GUUAACGGUCAUAGGCCAUGGAACCUAGGAGCACCAUUUCGCUGCCAGUGAAGAAAUGAACAAAGAAAAUCUGGGCCAGGCAGGCAUCAAAAGAAAUAGUCUUGCGCACAACCAGAAAGUCUGUAAUCAUUUUAAGGGUA [A24C U108A]	0.01
GUUAACGGUCAUAGGCCAUGGAAGCUAGGAGCACCAUUUCGCUGCCAGUGAAGAAAUGAACAAAGAAAAUCUGGGCCAGGCAGGCGUCAAAAGAAAUAGUCUUGCGCUCAACCAGAAAGUCUGUAAUCAUUUUAAGGGUA [A24G A86G]	1.19
GUUAACGGUCAUAGGCCAUGGAACCUAGGAGCACCAUUUCGCUGCCAGCGAAGAAAUGAACAAAGAAAAUCUGGGCCAGGCAGGCAUCAAAAGAAAUAGUCUUGCGCUCAACCAGAAAGUCUGUAAUCAUUUUAAGGGUA [A24C U49C]	1.53
GUUAACGGUCAUAGGCCAUGGAACCUAGGAGCACCAUUUCGCUGCCAGUGAAGAAAUGAACAAAGAAAAUCUGGGCCAGGCAGGCAUCAAAAGAAAUAGUCUUGCGCUCAACCAGAAAGUCUGUAAUCAUUUUAAGGGCA [A24C U139C]	2.1
GUUAACGGUCAUAGGCCAUGGAAGCUAGGAGCACCAUUUCGCUGCCAGUGGAGAAAUGAACAAAGAAAAUCUGGGCCAGGCAGGCAUCAAAAGAAAUAGUCUUGCGCUCAACCAGAAAGUCUGUAAUCAUUUUAAGGGUA [A24G A51G]	1.27
GUUAACGGUCAUAGGCCAUGGAAGCUAGGAGCACCAUUUCGCUGCCAGUGUAGAAAUGAACAAAGAAAAUCUGGGCCAGGCAGGCAUCAAAAGAAAUAGUCUUGCGCUCAACCAGAAAGUCUGUAAUCAUUUUAAGGGUA [A24G A51U]	1.19
GUUAACGGUCAUAGGCCAUGGAAGCUAGGAGCACCAUUUCGCUGCCAGUGAAGAAAUGAACAAAGAAAAUCUGGGCCAGGCAGGCAUCAGAAGAAAUAGUCUUGCGCUCAACCAGAAAGUCUGUAAUCAUUUUAAGGGUA [A24G A90G]	1.03
GUUAACGGUCAUAGGCCAUGGAAGCUAGGAGCACCAUUUCGCUGCCAGUGAAGAAAUGAACAAAGAAGAUCUGGGCCAGGCAGGCAUCAAAAGAAAUAGUCUUGCGCUCAACCAGAAAGUCUGUAAUCAUUUUAAGGGUA [A24G A68G]	1.01
GUUAACGGUCAUAGGCCAUGGAAGCUAGGAGCACCAUUUCGCUGCCAGUGAAGAAAUGAACAAAGAACAUCUGGGCCAGGCAGGCAUCAAAAGAAAUAGUCUUGCGCUCAACCAGAAAGUCUGUAAUCAUUUUAAGGGUA [A24G A68C]	1.49
GUUAACGGUCAUAGGCCAUGGAACCUAGGAGCACCAUUUCGCUGCCAGUGAAGAAAUGAACAAAGAAAAUCUGGGCCAGGCAGGCAUCAAAAGAAAUAGUCCUGCGCUCAACCAGAAAGUCUGUAAUCAUUUUAAGGGUA [A24C U102C]	1.22
GUUAACGGUCAUAGGCCAUGGAAGCUAGGAGCACCAUUUCGCUGCCAGUGAAGAAAUGAACAAAGUAAAUCUGGGCCAGGCAGGCAUCAAAAGAAAUAGUCUUGCGCUCAACCAGAAAGUCUGUAAUCAUUUUAAGGGUA [A24G A66U]	1.11
GUUAACGGUCAUAGGCCAUGGAAGCUAGGAGCACCAUUUCGCUGCCAGUGAAGAAAUGAACAAAGGAAAUCUGGGCCAGGCAGGCAUCAAAAGAAAUAGUCUUGCGCUCAACCAGAAAGUCUGUAAUCAUUUUAAGGGUA [A24G A66G]	0.73
GUUAACGGUCAUAGGCCAUGGAACCUAGGAGCACCAUUUCGCUGCCAGUGAAGAAAUGAACAAAGAAAAUCUGGGCCAGGCAGGCAUCAAAAGAAAUAGUCUUGCGCUCAACCAGAAAGUCUGUAAUCAUCUUAAGGGUA [A24C U131C]	1.82
GUUAACGGUCAUAGGCCAUGGAAGCUAGGAGCACCAUUUCGCUGCCAGUGAAGAAAUGAACAGAGAAAAUCUGGGCCAGGCAGGCAUCAAAAGAAAUAGUCUUGCGCUCAACCAGAAAGUCUGUAAUCAUUUUAAGGGUA [A24G A63G]	1.17
GUUAACGGUCAUAGGCCAUGGAAGCUAGGAGCACCAUUUCGCUGCCAGUGAUGAAAUGAACAAAGAAAAUCUGGGCCAGGCAGGCAUCAAAAGAAAUAGUCUUGCGCUCAACCAGAAAGUCUGUAAUCAUUUUAAGGGUA [A24G A52U]	0.64
GUUAACGGUCAUAGGCCAUGGAAGCUAGGAGCACCGUUUCGCUGCCAGUGAAGAAAUGAACAAAGAAAAUCUGGGCCAGGCAGGCAUCAAAAGAAAUAGUCUUGCGCUCAACCAGAAAGUCUGUAAUCAUUUUAAGGGUA [A24G A36G]	1.15
GUUAACGGUCAUAGGCCAUGGAAGCUAGGAGCACCAUUUCGCUGCCAGUGAAGUAAUGAACAAAGAAAAUCUGGGCCAGGCAGGCAUCAAAAGAAAUAGUCUUGCGCUCAACCAGAAAGUCUGUAAUCAUUUUAAGGGUA [A24G A54U]	1.48
GUUAACGGUCAUAGGCCAUGGAAGCUAGGAGCACCAUUUCGCUGCCAGUGAAGAAAUGAACAAAGAAAAUCUGGGCCAGGCAGGCAUCAAAAGAAAUAGUCUUGCGCUCAACCAGAAAGUCUGUAAUCAUUUUAAGGGUA [A24G]	1.09

Variant	self-cleavage
GUUAACGGUCAUAGGCCAUGGAACCUAGGAGCACCAUUUCGCCGCCAGUGAAGAAAUGAACAAAGAAAAUCUGGGCCAGGCAGGCAUCAAAAGAAAUAGUCUUGCGCUCAACCAGAAAGUCUGUAAUCAUUUUAAGGGUA [A24C U43C]	1.9
GUUAACGGUCAUAGGCCAUGGAACCUAGGAGCACCAUUUCGCUGCCAGUGAAGAAAAGAACAAAGAAAAUCUGGGCCAGGCAGGCAUCAAAAGAAAUAGUCUUGCGCUCAACCAGAAAGUCUGUAAUCAUUUUAAGGGUA [A24C U57A]	1.21
GUUAACGGUCAUAGGCCAUGGAAGCUAGGAGCACCAUUUCGCUGCCAGUGAAGAAAUGAACAAAGAGAAUCUGGGCCAGGCAGGCAUCAAAAGAAAUAGUCUUGCGCUCAACCAGAAAGUCUGUAAUCAUUUUAAGGGUA [A24G A67G]	1.32
GUUAACGGUCAUAGGCCAUGGAAGCUAGGAGCACCAUUUCGCUGCCAGUGAAGAAAUGAACAAAGAAAAUCUGGGCCAGGCUGGCAUCAAAAGAAAUAGUCUUGCGCUCAACCAGAAAGUCUGUAAUCAUUUUAAGGGUA [A24G A82U]	0.31
GUUAACGGUCAUAGGCCAUGGAAGCUAGGAGCACCAUUUCGCUGCCAGUGAAGAAAUGAACAAAGAAAAUCUGGGCCUGGCAGGCAUCAAAAGAAAUAGUCUUGCGCUCAACCAGAAAGUCUGUAAUCAUUUUAAGGGUA [A24G A78U]	0.39
GUUAACGGUCAUAGGCCAUGGAAGCUAGGAGCACCAUUUCGCUGCCAGUGAAGAAAUGAACAAAGAAAAUCUGGGCCGGGCAGGCAUCAAAAGAAAUAGUCUUGCGCUCAACCAGAAAGUCUGUAAUCAUUUUAAGGGUA [A24G A78G]	0.21
GUUAACGGUCAUAGGCCAUGGAACCUAGGAGCACCAUUUCGCUGCCAGUGAAGAAAUGAACAAAGAAAAUCUGGGCCAGGCAGGCAUCAAAAGAAAUAGUCUUGCGCUCAACCAGAAAGUCUGUAACCAUUUUAAGGGUA [A24C U127C]	1.03
GUUAACGGUCAUAGGCCAUGGAAGCUAGGAGCACCAUUUCGCUGCCAGUGAAGAAAUGAACAAAGAAAAUCUGGGCCAGGCAGGCAUCAAAUGAAAUAGUCUUGCGCUCAACCAGAAAGUCUGUAAUCAUUUUAAGGGUA [A24G A92U]	1.45
GUUAACGGUCAUAGGCCAUGGAACCUAGGAGCACCAUUUCGCUGCCAGUGAAGAAAUGAACAAAGAAAAUCAGGGCCAGGCAGGCAUCAAAAGAAAUAGUCUUGCGCUCAACCAGAAAGUCUGUAAUCAUUUUAAGGGUA [A24C U72A]	0.28
GUUAACGGUCAUAGGCCAUGGAACCUAGGAGCACCAUUUCGCUGCCAGUGAAGAAAUGAACAAAGAAAAUCUGGGCCAGGCAGGCAUCAAAAGAAAUAGCCUUGCGCUCAACCAGAAAGUCUGUAAUCAUUUUAAGGGUA [A24C U100C]	1.84
GUUAACGGUCAUAGGCCAUGGAAGCUAGGAGCACCAUUUCGCUGCCUGUGAAGAAAUGAACAAAGAAAAUCUGGGCCAGGCAGGCAUCAAAAGAAAUAGUCUUGCGCUCAACCAGAAAGUCUGUAAUCAUUUUAAGGGUA [A24G A47U]	0.96
GUUAACGGUCAUAGGCCAUGGAAGCUAGGAGCACCAUUUCGCUGCCAGUGAAGAAAUGGACAAAGAAAAUCUGGGCCAGGCAGGCAUCAAAAGAAAUAGUCUUGCGCUCAACCAGAAAGUCUGUAAUCAUUUUAAGGGUA [A24G A59G]	1.23
GUUAACGGUCAUAGGCCAUGGAAGCUAGGAGCACCAUUUCGCUGCCAGUGAAGAAAUGCACAAAGAAAAUCUGGGCCAGGCAGGCAUCAAAAGAAAUAGUCUUGCGCUCAACCAGAAAGUCUGUAAUCAUUUUAAGGGUA [A24G A59C]	0
GUUAACGGUCAUAGGCCAUGGAAGCUAGGAGCACCAUUUCGCUGCCAGUGAAGAAAUGAACAAAGAAAAUCUGGGCCAGGCAGGCAUCAAAAGAUAUAGUCUUGCGCUCAACCAGAAAGUCUGUAAUCAUUUUAAGGGUA [A24G A95U]	1.16
GUUAACGGUCAUAGGCCAUGGAAGCUAGGAGCACCAUUUCGCUGCCAGUGAAGAAAUGAGCAAAGAAAAUCUGGGCCAGGCAGGCAUCAAAAGAAAUAGUCUUGCGCUCAACCAGAAAGUCUGUAAUCAUUUUAAGGGUA [A24G A60G]	0.89
GUUAACGGUCAUAGGCCAUGGAAGCUAGGGGCACCAUUUCGCUGCCAGUGAAGAAAUGAACAAAGAAAAUCUGGGCCAGGCAGGCAUCAAAAGAAAUAGUCUUGCGCUCAACCAGAAAGUCUGUAAUCAUUUUAAGGGUA [A24G A30G]	1.01
GUUAACGGUCAUAGGCCAUGGAAGCUAGGCGCACCAUUUCGCUGCCAGUGAAGAAAUGAACAAAGAAAAUCUGGGCCAGGCAGGCAUCAAAAGAAAUAGUCUUGCGCUCAACCAGAAAGUCUGUAAUCAUUUUAAGGGUA [A24G A30C]	1.22
GUUAACGGUCAUAGGCCAUGGAAGCUAGGAGCACCAUUUCGCUGCCAGUGAAGAAAUGAACAAAGAAAAUCUGGGCCAGGCAGGCAUCAAUAGAAAUAGUCUUGCGCUCAACCAGAAAGUCUGUAAUCAUUUUAAGGGUA [A24G A91U]	1.61
GUUAACGGUCAUAGGCCAUGGAAGCUAGGAGCACCAUUUCGCUGCCAGUGAAGAAAUGAACAAUGAAAAUCUGGGCCAGGCAGGCAUCAAAAGAAAUAGUCUUGCGCUCAACCAGAAAGUCUGUAAUCAUUUUAAGGGUA [A24G A64U]	1.51
GUUAACGGUCAUAGGCCAUGGAAGCUAGGAGCCCCAUUUCGCUGCCAGUGAAGAAAUGAACAAAGAAAAUCUGGGCCAGGCAGGCAUCAAAAGAAAUAGUCUUGCGCUCAACCAGAAAGUCUGUAAUCAUUUUAAGGGUA [A24G A33C]	1.62
